Test results published in the supplement of paper PMC6757056.
± gives the standard deviation of the averaged measurements.

B1: library; a variant is named by its letters at N, in order (parent)
chain: GCUGUCACCGGAAUACCAGCAUCGUCUUGAUGCCCUUGGAAGUCCGGUCUGAUGAGUCCNNNNNGGACGAAACAGC
B2: library; a variant is named by its letters at N, in order (parent)
chain: GCUGUCACCGGUGUAUUACCCUAGUGGUCGACCGGUCUGAUGAGUCUNNNNNNAGACGAAACAGC

Experiments:
theophylline [1] = variants of: B1; test: normalized RNA/DNA level with ligand (relative to sTRSVctl = 100) (log10 (% of sTRSVctl)); higher = less ribozyme self-cleavage, higher mRNA level; conditions: ligand concentration (+) RNA-Seq: 5 mM, HEK293T, reporter: mCherry (pCS4076), ligand present: yes
Outline: (§1)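 Total RNA, extracted with EDTA 72 h after HEK293T cells were transfected with 4 µg per 6-well well of reporter-linked ribozyme switch library plasmids, was reverse-transcribed, amplified, barcoded and sequenced. Ligand, if used, was added 1 h before transfection. RNA level was derived from RNA reads divided by DNA reads and normalized to a spiked-in non-cleaving sequence or to the top sequences. This was multiplied by 100 and log10-transformed, with the top set of 25 sequences and a ≥100 DNA read minimum.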

theophylline [2] = variants of: B1; test: normalized RNA/DNA level without ligand (relative to sTRSVctl = 100) (log10 (% of sTRSVctl)); higher = less ribozyme self-cleavage, higher mRNA level; conditions: HEK293T, reporter: mCherry (pCS4076), ligand present: no
Outline: as §1

theophylline [3] = variants of: B1; test: FACS-Seq fitted mean relative fluorescence mCherry/BFP without ligand (log10 relative fluorescence); higher = higher reporter protein expression; conditions: HEK293T, ligand present: no
Outline: (§2)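 Fluorescence comes from a normal fit to bin counts, normalized against controls. HEK293T libraries lentivirally given a ribozyme-switch mCherry reporter and an EF1α-BFP marker were enriched, incubated 48 h with or without ligand, and sorted by mCherry/BFP into 6 bins. Bin genomic DNA was PCR-amplified, barcoded and sequenced on MiSeq. The log10(mCherry/BFP) mean was scaled to five spiked-in control ribozymes.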

theophylline [4] = variants of: B1; test: FACS-Seq fitted mean relative fluorescence mCherry/BFP with ligand (log10 relative fluorescence); ligand concentration (+) FACS-Seq: 1 mM; higher = higher reporter protein expression; conditions: HEK293T, ligand present: yes
Outline: as §2

hypoxanthine [5] = variants of: B2; test: FACS-Seq fitted mean relative fluorescence mCherry/BFP without ligand (log10 relative fluorescence); ligand: hypoxanthine (xanthine aptamer); higher = higher reporter protein expression; conditions: HEK293T, ligand present: no
Method: (§3)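 Hammerhead (sTRSV) ribozyme switch libraries with a ligand aptamer grafted on stem I and a randomized N4-6 loop II, cloned into the 3' UTR of mCherry and transiently transfected into HEK293T cells; RNA-Seq 72 h post transfection with ligand added 1 h before transfection; RNA read count / plasmid DNA read count normalized to the non-cleaving sTRSVctl (x100), log10; sequences with >100 DNA reads. FACS-Seq: lentiviral library sorted into 6 bins after 48 h ligand, log-normal fit mean of mCherry/BFP scaled to controls. Printed sequences are partial switch sequences.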

hypoxanthine [6] = variants of: B2; test: normalized RNA/DNA level with ligand (relative to sTRSVctl = 100) (log10 (% of sTRSVctl)); ligand: hypoxanthine (xanthine aptamer); higher = less ribozyme self-cleavage, higher mRNA level; conditions: ligand concentration (+) RNA-Seq: 5 mM, HEK293T, reporter: mCherry (pCS4076), ligand present: yes
Method: as §3

hypoxanthine [7] = variants of: B2; test: normalized RNA/DNA level without ligand (relative to sTRSVctl = 100) (log10 (% of sTRSVctl)); ligand: hypoxanthine (xanthine aptamer); higher = less ribozyme self-cleavage, higher mRNA level; conditions: HEK293T, reporter: mCherry (pCS4076), ligand present: no
Method: as §3

hypoxanthine [8] = variants of: B2; test: FACS-Seq fitted mean relative fluorescence mCherry/BFP with ligand (log10 relative fluorescence); ligand: hypoxanthine (xanthine aptamer); ligand concentration (+) FACS-Seq: 5 mM; higher = higher reporter protein expression; conditions: HEK293T, ligand present: yes
Method: as §3

Variant | normalized RNA/DNA level with ligand (log10) (theophylline [1]) | normalized RNA/DNA level without ligand (log10) (theophylline [2]) | FACS-Seq fitted mean (log10) (theophylline [3]) | FACS-Seq fitted mean (log10) (theophylline [4]) | FACS-Seq fitted mean (log10) (hypoxanthine [5]) | normalized RNA/DNA level with ligand (log10) (hypoxanthine [6]) | normalized RNA/DNA level without ligand (log10) (hypoxanthine [7]) | FACS-Seq fitted mean (log10) (hypoxanthine [8])
GCUGUCACCGGAAUACCAGCAUCGUCUUGAUGCCCUUGGAAGUCCGGUCUGAUGAGUCCCAUUCGGACGAAACAGC [CAUUC] | 2.07 ± 0.066 | 1.92 ± 0.099 |  |  |  |  |  | 
GCUGUCACCGGAAUACCAGCAUCGUCUUGAUGCCCUUGGAAGUCCGGUCUGAUGAGUCCUUUUCGGACGAAACAGC [UUUUC] | 2.01 ± 0.077 | 1.99 ± 0.18 | 0.917 ± 0.042 | 0.94 ± 0.041 |  |  |  | 
GCUGUCACCGGAAUACCAGCAUCGUCUUGAUGCCCUUGGAAGUCCGGUCUGAUGAGUCCUUUUUGGACGAAACAGC [UUUUU] | 2.01 ± 0.027 | 1.95 ± 0.15 | 0.93 ± 0.071 | 0.991 ± 0.017 |  |  |  | 
GCUGUCACCGGAAUACCAGCAUCGUCUUGAUGCCCUUGGAAGUCCGGUCUGAUGAGUCCCUUUCGGACGAAACAGC [CUUUC] | 2.07 ± 0.067 | 2 ± 0.092 | 1.07 ± 0.048 | 0.998 ± 0.19 |  |  |  | 
GCUGUCACCGGAAUACCAGCAUCGUCUUGAUGCCCUUGGAAGUCCGGUCUGAUGAGUCCCUUUUGGACGAAACAGC [CUUUU] | 1.992 ± 0.0085 | 1.91 ± 0.045 | 1.04 ± 0.014 | 1.15 ± 0.12 |  |  |  | 
GCUGUCACCGGAAUACCAGCAUCGUCUUGAUGCCCUUGGAAGUCCGGUCUGAUGAGUCCUUUGCGGACGAAACAGC [UUUGC] | 2.05 ± 0.042 | 1.93 ± 0.023 |  |  |  |  |  | 
GCUGUCACCGGAAUACCAGCAUCGUCUUGAUGCCCUUGGAAGUCCGGUCUGAUGAGUCCGUUUGGGACGAAACAGC [GUUUG] | 1.96 ± 0.091 | 1.77 ± 0.058 | 0.972 ± 0.24 | 0.929 ± 0.17 |  |  |  | 
GCUGUCACCGGAAUACCAGCAUCGUCUUGAUGCCCUUGGAAGUCCGGUCUGAUGAGUCCUUCAAGGACGAAACAGC [UUCAA] | 2.08 ± 0.056 | 1.86 ± 0.12 |  |  |  |  |  | 
GCUGUCACCGGAAUACCAGCAUCGUCUUGAUGCCCUUGGAAGUCCGGUCUGAUGAGUCCAUUUAGGACGAAACAGC [AUUUA] | 2 ± 0.11 | 1.8 ± 0.08 | 0.734 ± 0.078 | 0.834 ± 0.062 |  |  |  | 
GCUGUCACCGGAAUACCAGCAUCGUCUUGAUGCCCUUGGAAGUCCGGUCUGAUGAGUCCAUUUUGGACGAAACAGC [AUUUU] | 2.02 ± 0.043 | 1.88 ± 0.062 | 0.213 ± 0.053 | 0.194 ± 0.022 |  |  |  | 
GCUGUCACCGGAAUACCAGCAUCGUCUUGAUGCCCUUGGAAGUCCGGUCUGAUGAGUCCAUUUGGGACGAAACAGC [AUUUG] | 2.03 ± 0.083 | 1.93 ± 0.17 | 0.103 ± 0.037 | 0.184 ± 0.037 |  |  |  | 
GCUGUCACCGGAAUACCAGCAUCGUCUUGAUGCCCUUGGAAGUCCGGUCUGAUGAGUCCAUUUCGGACGAAACAGC [AUUUC] | 2.01 ± 0.07 | 1.97 ± 0.11 | 1 ± 0.085 | 0.865 ± 0.018 |  |  |  | 
GCUGUCACCGGAAUACCAGCAUCGUCUUGAUGCCCUUGGAAGUCCGGUCUGAUGAGUCCUCUUCGGACGAAACAGC [UCUUC] | 2.03 ± 0.1 | 1.97 ± 0.046 |  |  |  |  |  | 
GCUGUCACCGGUGUAUUACCCUAGUGGUCGACCGGUCUGAUGAGUCUUAAAAAAGACGAAACAGC [UAAAAA] |  |  |  |  | 0.315 ± 0.015 | 1.905 ± 0.019 | 1.784 ± 0.00081 | 0.22 ± 0.0062
GCUGUCACCGGUGUAUUACCCUAGUGGUCGACCGGUCUGAUGAGUCUUAAAACAGACGAAACAGC [UAAAAC] |  |  |  |  | 0.723 ± 0.03 | 1.914 ± 0.0064 | 1.826 ± 0.0019 | 0.769 ± 0.068
GCUGUCACCGGUGUAUUACCCUAGUGGUCGACCGGUCUGAUGAGUCUGAAAACAGACGAAACAGC [GAAAAC] |  |  |  |  | 0.271 ± 0.058 | 1.87 ± 0.053 | 1.7 ± 0.033 | 0.271 ± 0.06
GCUGUCACCGGUGUAUUACCCUAGUGGUCGACCGGUCUGAUGAGUCUGAAAAAAGACGAAACAGC [GAAAAA] |  |  |  |  | 0.653 ± 0.036 | 1.91 ± 0.027 | 1.8 ± 0.041 | 0.629 ± 0.093
GCUGUCACCGGUGUAUUACCCUAGUGGUCGACCGGUCUGAUGAGUCUAAAAAAAGACGAAACAGC [AAAAAA] |  |  |  |  | 0.738 ± 0.02 | 1.9 ± 0.042 | 1.8 ± 0.033 | 0.664 ± 0.03
GCUGUCACCGGUGUAUUACCCUAGUGGUCGACCGGUCUGAUGAGUCUCAAAACAGACGAAACAGC [CAAAAC] |  |  |  |  | 0.248 ± 0.079 | 1.9 ± 0.035 | 1.78 ± 0.028 | 0.0907 ± 0.058
GCUGUCACCGGUGUAUUACCCUAGUGGUCGACCGGUCUGAUGAGUCUCAAAAGAGACGAAACAGC [CAAAAG] |  |  |  |  | 0.0525 ± 0.066 | 1.87 ± 0.026 | 1.59 ± 0.038 | 0.174 ± 0.031
GCUGUCACCGGUGUAUUACCCUAGUGGUCGACCGGUCUGAUGAGUCUCAAAAAAGACGAAACAGC [CAAAAA] |  |  |  |  | 0.52 ± 0.1 | 1.9 ± 0.04 | 1.74 ± 0.025 | 0.526 ± 0.038
